The text below walks through data of US20230322924A1 (Janssen / Centocor, published 2023).

Read-outs that look alike come from different tables or passages of the source.

Test [1] concerns the target T1, Human CD33-C2-HSA (human).
T1 construct: C2 domain of human CD33 fused to HSA; also called C33W4; huCD33-C2-HSA
The experiment in a line: SPRi off-rate screen (IBIS MX96).

Test [2] deals with T2, Human CD33 ECD-HSA (human).
T2 construct: CD33 ECD fused at the C-terminus to monomeric HSA (C58S) and a six-histidine tag; also called C33W2; huCD33 ECD-HSA
The test is described as follows: SPRi off-rate screen (IBIS MX96).

Test [3] deals with T3, human CD3 on human T cells (human, UniProt P07766 23-207).
T3 construct: Native TCR-CD3 complex on cells; also called primary human T cells; human pan T cells
T3 sequence (P07766 23-207 limits assumed): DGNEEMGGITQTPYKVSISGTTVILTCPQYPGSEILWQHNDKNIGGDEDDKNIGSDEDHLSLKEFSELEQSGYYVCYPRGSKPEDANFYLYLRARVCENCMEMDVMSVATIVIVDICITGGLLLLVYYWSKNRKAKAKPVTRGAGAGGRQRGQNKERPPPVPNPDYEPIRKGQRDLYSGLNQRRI
The experiment in a line: competition with AF488 SP-34 tracer on human pan T cells, flow cytometry. Here is the method:
(§1) The mixture was added to the T cells for 2 hours at 4° C. Cells were then washed to remove un-bound antibody, fixed for 15 minutes, washed, and re-suspended in FACS Staining buffer containing 1 mM EDTA.
(§2) The iQue Intellicyte Flow Cytometer was used to measure binding. Cells were gated for T-cell population, followed by cell singlets, followed by Live Cells (FL4). Geometric mean of staining (FL1) was determined for each well. The acquired mean fluorescence intensity values were plotted as a function of the log antibody molecule concentration (converted to nM) and analyzed using Prism software in a sigmoidal dose-response (variable slope) from which the EC50/IC50 values (in nM) are derived. The binding affinity (Kd) was derived using the following formula: Kd=IC50/(1+([T]/KdT)).
(In general: A flow cytometer gives signals particle by particle.)

The target in test [4] is T4, Rh-CD19 (UniProt P15391 20-291, limits assumed).
T4 construct: rh read as recombinant human
T4 sequence (looked up): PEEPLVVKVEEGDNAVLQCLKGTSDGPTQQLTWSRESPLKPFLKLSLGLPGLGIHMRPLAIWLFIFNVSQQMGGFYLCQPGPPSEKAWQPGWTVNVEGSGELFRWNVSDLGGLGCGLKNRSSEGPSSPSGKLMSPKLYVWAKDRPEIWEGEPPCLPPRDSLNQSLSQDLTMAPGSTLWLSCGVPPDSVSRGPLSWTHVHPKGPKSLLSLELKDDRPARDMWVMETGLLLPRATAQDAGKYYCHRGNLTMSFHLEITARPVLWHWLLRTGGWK
The experiment in a line: Biacore 8K SPR, antibody over immobilised protein. Here is the method:
(§3) Non-specific binding of the lead molecule to unrelated surfaces is determined by biosensor technology (Biacore 8K). Antibody is passed over SPR surfaces coated with unrelated proteins. […] Irrelevant surfaces include negatively charged protein (Soy Trypsin Inhibitor), positively charged protein (Lysozyme and β-defensin), hydrophobic (Rh-integrin a4b7), human IgG, sticky protein (Rh-CD19). Proper controls are used in this experiment. Lead is flown over two surfaces, one is a blank and the other has a molecule directly immobilized. The response unit (RU) level is determined by subtracting the blank RU from the test surface RU. […] A response unit ≥100 predicts high risks for non-specific binding to charged/hydrophobic/IgG surfaces which would create challenges during manufacturing and translate to poor PK properties.
On the technique in general: Surface plasmon resonance follows binding to a sensor surface in real time, without labels.

The target of test [5] is T5, Rh-integrin a4b7 (UniProt P13612 34-977; P26010 20-723, limits assumed).
T5 construct: rh read as recombinant human
The test is described as follows: Biacore 8K SPR, antibody over immobilised protein. Here is the method:
as §3

Test [6] deals with T3, human CD3 on human T cells. The test is described as follows: Kd = IC50/(1+[T]/KdT) from competition with AF488 SP-34 on human pan T cells. The method, then: as §1, §2
Test [7] deals with T6, human PSMA on cells (LNCaP) (human, UniProt Q04609 1-750).
T6 construct: whole, on cells; also called LNCaP cells
T6 sequence (Q04609 whole entry): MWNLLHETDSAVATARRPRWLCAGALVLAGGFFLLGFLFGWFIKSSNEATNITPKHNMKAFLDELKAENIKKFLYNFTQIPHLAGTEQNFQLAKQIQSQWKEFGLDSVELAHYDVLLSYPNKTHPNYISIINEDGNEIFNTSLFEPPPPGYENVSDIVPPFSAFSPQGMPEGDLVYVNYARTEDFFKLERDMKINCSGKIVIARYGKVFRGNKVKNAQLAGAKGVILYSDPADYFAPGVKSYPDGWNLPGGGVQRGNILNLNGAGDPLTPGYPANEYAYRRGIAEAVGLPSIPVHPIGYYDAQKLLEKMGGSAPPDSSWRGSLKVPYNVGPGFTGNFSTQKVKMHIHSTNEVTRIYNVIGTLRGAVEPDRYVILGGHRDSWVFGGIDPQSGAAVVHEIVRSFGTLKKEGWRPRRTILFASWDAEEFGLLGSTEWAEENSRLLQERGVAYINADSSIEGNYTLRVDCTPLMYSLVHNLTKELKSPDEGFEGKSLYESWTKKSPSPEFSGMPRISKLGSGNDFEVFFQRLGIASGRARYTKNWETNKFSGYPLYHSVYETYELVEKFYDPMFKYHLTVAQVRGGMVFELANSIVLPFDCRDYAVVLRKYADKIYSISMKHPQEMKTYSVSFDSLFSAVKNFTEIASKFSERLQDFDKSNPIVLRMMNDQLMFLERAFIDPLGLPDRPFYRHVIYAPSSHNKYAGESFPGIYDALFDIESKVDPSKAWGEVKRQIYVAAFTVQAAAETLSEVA
The test is described as follows: flow cytometry, mammalian Fab supernatant on LNCaP cells, anti-human kappa-RPE. Here is the method: (§4) Individual Fab clones were isolated from the round 3 output of all panning experiments following pIX excision. Fab clones were tested for binding to chimp and cyno PSMA expressing HEK cells, as well as to human PSMA on LNCaP cells. Briefly, PSMA expressing cells were aliquoted into a V-bottom plate (CoStar 3357) at a density of 200,000 per well and incubated with (100 μl) supernatants expressing Fab fragments for 1 hour on ice. Cells were washed twice with PBS containing 2% FBS, and stained with a mouse anti-human kappa-RPE antibody (Life Technologies cat #MH10514) for 1 hour on ice. Cells were washed twice with PBS containing 2% FBS and resuspended in […] of the same wash buffer. Plates were read on a BD FACS Array flow cytometer. FACS data was analyzed in FlowJo software by live gating the healthy population of cells using forward scatter and side scatter, and then analyzing the cells within this gate for PE staining. Mean fluorescence intensity (MFI) was calculated and exported into Microsoft Excel. […] Fabs were sequenced and moved forward for cloning into mammalian expression vector for rescreening. True positives were selected from the binding of mammalian cell expressed Fab supernatants to PSMA-expressing cell lines.
FIGS. 22A, 22B, 22C and 22D show the titration curves for anti-PSMA panning hits vs. LNCaP cells. […] Binding profiles among hits were compared across cell lines expressing different species of PSMA.

For test [8], the target named is T7, cynomolgus monkey PSMA on HEK cells (cynomolgus).
T7 construct: whole, on cells; also called Cyno-PSMA HEK; PSMG5
The test is described as follows: flow cytometry, mammalian Fab supernatant on cyno-PSMA HEK cells (PSMG5), anti-human kappa-RPE. The text has this: (§5) (Mammalian Fab Supernatant Titration Curves for Anti-PSMA Phage Panning Hits vs Cyno PSMA HEK). […] In FIG. 24D, Mammalian-expressed supernatants were normalized for Fab expression via octet, and titrated against either human LNCAP, PSMG5 (Cyno-PSMA HEK), or PSMG9 (chimp-PSMA HEK) cells using flow cytometry. Geometric mean fluorescence intensity (GeoMFI) was plotted vs. Fab concertation using GraphPad Prizm.
(§6) A cell-based binding assay was designed to assess the binding capabilities of individual Fab-his fusions from E. coli supernatants to PSMA-expressing cells. Individual Fab clones were isolated from the round 3 output of all panning experiments following pIX excision. Fab clones were tested for binding to chimp and cyno PSMA expressing HEK cells, as well as to human PSMA on LNCaP cells. Briefly, PSMA expressing cells were aliquoted into a V-bottom plate (CoStar 3357) at a density of 200,000 per well and incubated with (100 μl) supernatants expressing Fab fragments for 1 hour on ice. […] Plates were read on a BD FACS Array flow cytometer. FACS data was analyzed in FlowJo software by live gating the healthy population of cells using forward scatter and side scatter, and then analyzing the cells within this gate for PE staining. Mean fluorescence intensity (MFI) was calculated and exported into Microsoft Excel. […]

For test [9], the target named is T8, chimpanzee PSMA on HEK cells (chimpanzee, UniProt H2Q3K5 1-750).
T8 construct: also called chimp-PSMA HEK; PSMG9
T8 sequence (H2Q3K5 entry or part of it limits assumed): as the sequence (Q04609 whole entry) above, with S155L, R281H, H475Y, S613N, S647T, V660L, E727D, Y733S counted along it
The experiment in a line: flow cytometry, mammalian Fab supernatant on chimp-PSMA HEK cells (PSMG9), anti-human kappa-RPE. Here is the method: as §4
(§7) FIGS. 22A, 22B, 22C and 22D show the titration curves for anti-PSMA panning hits vs. LNCaP cells. […]

The target of test [10] is T8, chimpanzee PSMA on HEK cells. The description is as above. Here is the method: as §4, §7
The source holds these as a separate data set.

Test [11] addresses T7, cynomolgus monkey PSMA on HEK cells. The test is described as follows: flow cytometry, mammalian Fab supernatant on cyno-PSMA HEK cells (PSMG5), anti-human kappa-RPE.
From the text: as §5, §6
This is another data set of the same source.

B1: C33B778 (antibody, IgG4, V domains shown)
VH: QVQLVESGGGVVQPGRSLRLSCVASGFTFSSYGMHWVRQAPGKGLEWVAVISYDGSNKYYADSVKGRFTISRDNSKNTLYLQMNSLRAEGTAVYYCAKDFRSFDWLPPDSASYHGMDVWGQGTTVTVSS
VL: SYELTQPPSVSVSPGQTASITCSGDKLGDKYACWYQQKPGQSPVLVIYQDGKRPSGIPERFSGSNFGNKATLTISGTQAMDEADYYCQAWDRNTVVFGGGTKLTVL
notes: also called C33H66/C33L60; C33F78
Broadly, the koff is the rate constant with which the complex falls apart. Consider B1, for which the koff in [1] was 0.00257 s⁻¹; in test [2] it was 4.72e-05 s⁻¹.

B2: CD3B376 (antibody, human IgG4 S228P, lambda, F234A L235A, V domains shown)
VH: QVQLQQSGPRLVRPSQTLSLTCAISGDSVFNNNAAWSWIRQSPSRGLEWLGRTYYRSKWLYDYAVSVKSRITVNPDTSRNQFTLQLNSVTPEDTALYYCARGYSSSFDYWGQGTLVTVSS
VL: QSALTQPASVSGSPGQSITISCTGTSSNIGTYKFVSWYQQHPDKAPKVLLYEVSKRPSGVSSRFSGSKSGNTASLTISGLQAEDQADYHCVSYAGSGTLLFGGGTKLTVLG
notes: IgG4 PAA (S228P, F234A, L235A); LC is CD3L124 with C91V; also called CD3H219/CD3L150; bivalent CD3B376
For orientation: IC50 means the concentration needed to halve the response being measured. By Kd is commonly meant a measure of binding affinity in units of concentration. Molecule B2 showed an IC50 in test [3] of 29 nM. Besides, the binding result in test [4] and in test [5] was “no binding (tested: response unit ≥100 predicts high risks)” in each case. In test [6], the Kd was 7.3 nM.

B3: CD3B450 (antibody, human IgG4 S228P, lambda, F234A L235A, V domains shown)
VH: QVQLQQSGPGLVKPSQTLSLTCAISGDSVFNNNAAWSWIRQSPSRGLEWLGRTYYRSKWLYDYAVSVKSRITINPDTSKNQFSLQLNSVTPEDTAVYYCARGYSSSFDYWGQGTLVTVSS
VL: QSALTQPASVSGSPGQSITISCTGTSSNIGTYKFVSWYQQHPGKAPKVMIYEVSKRPSGVSNRFSGSKSGNTASLTISGLQAEDEADYYCVSYAGSGTLLFGGGTKLTVLG
notes: IgG4 PAA; also called CD3H231/CD3L197; bivalent CD3B450
Turning to B3, in [3], the IC50 came to 60 nM. In test [6], the Kd turned out to be 15 nM.

B4: PSMM52 (Fab, V domains shown)
VH: QVQLVQSGAEVKKPGSSVKVSCKASGGTFSSYAISWVRQAPGQGLEWMGWIIPYNGNANYAQKFQGRVTITADESTSTAYMELSSLRSEDTAVYYCARVNSAALVWERLDYWGQGTLVTVSS
VL: DIQMTQSPSSLSASVGDRVTITCRASQSIDRWLNWYQQKPGKAPKLLIYAASSLQSGVPSRFSGSGSGTDFTLTISSLQPEDFATYYCQQSPRYPLTFGQGTKVEIK
notes: Mammalian Fab supernatant; also called PSMB51
By EC50 (read off the curve) is commonly meant the concentration that produces a half-maximal response. Turning to B4, the “EC50 (read off the curve)” value was roughly 0.3 µg/mL in test [7]; roughly 0.2 µg/mL in test [8]; roughly 0.2 µg/mL in [9]; roughly 0.2 µg/mL in test [10]; roughly 0.2 µg/mL in [11].
